For this experiment, the target named is Biotinylated MR1-β2m-5-OP-RU (UniProt Q95460). Nature of the experiment: SPR. Background: SPR reads the build-up and loss of mass on a sensor chip optically.

The source of these data is PMC13458692.

A word on the Kd: it is the constant that tells how readily two partners part at equilibrium.

UniProt Q95460, sequence (Q95460 23-302, chain 1 of 2): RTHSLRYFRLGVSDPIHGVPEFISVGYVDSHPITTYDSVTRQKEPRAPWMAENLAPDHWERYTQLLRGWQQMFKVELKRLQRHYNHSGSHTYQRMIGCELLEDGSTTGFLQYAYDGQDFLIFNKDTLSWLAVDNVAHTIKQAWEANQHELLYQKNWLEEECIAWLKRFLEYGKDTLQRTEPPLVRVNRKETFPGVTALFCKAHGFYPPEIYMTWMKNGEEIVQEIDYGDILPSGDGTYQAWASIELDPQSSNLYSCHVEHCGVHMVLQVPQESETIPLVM
UniProt Q95460, sequence (P61769 21-119, chain 2 of 2, further chain): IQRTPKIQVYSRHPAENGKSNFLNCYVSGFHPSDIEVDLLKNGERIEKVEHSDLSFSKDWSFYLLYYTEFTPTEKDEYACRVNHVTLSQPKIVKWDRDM

For the substance “A-F7 (TRAV1-2/TRBV6-1) adult MAIT TCR, soluble”, the Kd amounted to 1920 nM.
